Assay [1] has as its target human HER2 (ErbB2), human epidermal growth factor receptor 2 protein (human) (UniProt P04626). In words: flow cytometry on SKOV-3 cells, background without primary antibody.
The target is the same in assay [2]. The assay is described as follows: flow cytometry on JIMT-1 cells, background without primary antibody.
Assay [3] deals with Jurkat cells (human T leukemia cells; do not express human HER2). In words: flow cytometry on HER2-negative Jurkat cells, background without primary antibody. A general note: Flow cytometry measures light scatter and fluorescence of single cells or particles in a stream.

In the case of “goat F(ab')2-anti-human IgG (H+L)-RPE (Southern Biotech, Cat. No. 2043-09)”, the MFI in assay [1] amounted to 8; in assay [2], 3.29; in assay [3], 9.

(Values after patent US20160051695A1.)
